According to publication PMC7268548, “A missense variant in specificity protein 6 (SP6) is associated with amelogenesis imperfecta”:
Substitutions are numbered along the chain they refer to.

Experiments:
SP6 wild type = target: T1, SP6 wild type (Homo sapiens, UniProt Q3SY56 1-376); assay: SPR; up to 400 nM; data not shown; Biacore 3000 SPR, 10 mM HEPES pH 7.5, 200 mM NaCl, 0.01% surfactant P-20, 25 C, 40 uL/min, protein 6.25-400 nM, DNA on SA chip; conditions: protein: recombinant; tags: N-terminal His-GST; label: 5'-biotin on forward strand; blunt
T1 sequence: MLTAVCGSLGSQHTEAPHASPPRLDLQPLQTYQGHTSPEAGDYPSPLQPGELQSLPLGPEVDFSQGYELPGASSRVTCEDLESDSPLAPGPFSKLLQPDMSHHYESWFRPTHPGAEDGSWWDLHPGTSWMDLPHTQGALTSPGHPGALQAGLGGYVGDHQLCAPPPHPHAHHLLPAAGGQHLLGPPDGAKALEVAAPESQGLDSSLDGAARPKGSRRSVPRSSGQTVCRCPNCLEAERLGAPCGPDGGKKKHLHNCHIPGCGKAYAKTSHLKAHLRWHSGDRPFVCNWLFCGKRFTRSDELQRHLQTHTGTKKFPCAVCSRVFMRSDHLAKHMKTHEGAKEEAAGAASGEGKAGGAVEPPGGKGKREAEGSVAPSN

SP6 p.(Ala273Lys) = target: T2, SP6 p.(Ala273Lys) (Homo sapiens, UniProt Q3SY56 1-376, A273K); assay: as above; conditions: protein: recombinant; tags: N-terminal His-GST; label: 5'-biotin on forward strand; blunt
T2 sequence: T1 sequence with A273K

B1: NKX2-1 promoter probe (SP3 site control) (dsDNA)
DNA 1: GGGATCCGGGACAGCCTCCGGGAGGCAGTCGATCCCCTAC
DNA 2: GTAGGGGATCGACTGCCTCCCGGAGGCTGTCCCGGATCCC
- binding result (SP6 wild type): no binding
- binding result (SP6 p.(Ala273Lys)): no binding
